Read-outs that look alike come from different tables or passages of the source.

Holding throughout (type): in vivo, BALB/c mice
The subject of assay [1] is vaccinia virus. Conditions: for survival of vaccinia infected mice: 5×10^3 U/mouse/day i.n., 5 days, started one day before infection, 8 LD50, 21 days monitoring.
The test system of assay [2] is vaccinia virus. Conditions: 8 LD50.
Assay [3] has as its system vaccinia virus. Conditions: IFN-γ 5,000 to 20,000 U i.n., daily for five days from one day after infection; 50 LD50.

Take IFN-α: the “survival of vaccinia infected mice” value with vaccinia virus [1] is reported as 100%. In addition, the “protection against severe vaccinia infection” value in the assay with vaccinia virus [1] (IFN-α 5,000 U intranasal, 50 LD50 as printed in b34 (FIG. 2)) was 70-80%.

B1: IFN-γ (protein, UniProt P01579 24-161, looked up)
Interferon gamma: QDPYVKEAENLKKYFNAGHSDVADNGTLFLGILKNWKEESDRKIMQSQIVSFYFKLFKNFKDDQSIQKSVETIKEDMNVKFFNSNKKKRDDFEKLTNYSVTDLNVQRKAIHELIQVMAELSPAAKTGKRKRSQMLFRG
As to B1, the “survival of vaccinia infected mice” value in the assay with vaccinia virus [2] (IFN-γ 2,000 U only, i.n., 5 days from one day after infection) turned out to be 80%; with vaccinia virus [1] it was 90%. Moreover, in the assay on vaccinia virus [2] (IFN-γ 5,000 U), the “protection of vaccinia infected mice” value was determined as 100%. Also, in the assay on vaccinia virus [3], the “protection against severe vaccinia infection” value was 70-80%.
